Measurements published in patent US20250320480A1, “Immunoglobulin Cleaving Enzyme” (priority 2021, published 2025).
“Also recorded” adds a separate entry of the source.

Experiments:
casein = assay: General protease activity, EnzChek protease assay; type: biochemical; conditions: casein substrate, FabULOUS 5 μg, FabRICATOR 10 μg, IdeSORK2.0 10 μg
Procedure: FIG. 2. General protease activity. General protease activity was measured with the EnzCHECK protease assay, using casein as a substrate.
General protease activity was determined using the EnzChek Protease Assay kit, according to manufacturer's instructions. As a positive control the general protease FabULOUS (SpeB, 5 μg) was used, and as a negative control the IgG-specific protease FabRICATOR (IdeS, 10 μg). IdeSORK2.0 was added to a total quantity of 10 μg.

human IgG = assay: Immunoglobulin specificity on SDS-PAGE: human IgG and IgG Fc fusion proteins; type: biochemical; conditions: for Hydrolysis of human IgG and IgG Fc fusion proteins: incubated with different antibodies at 37° C., SDS-PAGE
Procedure: (§1) FIG. 3. Specificity of IdeSork2.0. IdeSork2.0 was mixed with different antibodies and incubated o/n at 37° C. before analysis on SDS-PAGE. The enzyme itself is noted with an arrow. […] Mouse IgG1, mouse IgG2b and human IgA were not affected by IdeSork2.0.
(§2) Various antibodies and antibody based therapeutics were incubated with Xork, IdeS, or IdeZ (1:40 ratio) for 1 hour at 37° C. in PBS, with substrate concentrations ranging between 2-5 mg/mL, before being analyzed on SDS-PAGE. For kinetic studies, a substrate level of 2-200 μM IVIG was used during 10 min at 37° C. before being analyzed on a UHPLC system.

human IgA = assay: Immunoglobulin specificity on SDS-PAGE: human IgA; type: biochemical; conditions: 37° C.
Procedure: as §1, §2

mouse IgG1 = mouse IgG1 (Mus musculus, UniProt P01868); assay: Immunoglobulin specificity on SDS-PAGE: mouse IgG1; type: biochemical; conditions: 37° C., listed as IdeSork2.0
Procedure: as §1, §2

guinea pig IgG = assay: Immunoglobulin specificity on SDS-PAGE: guinea pig IgG; type: biochemical; conditions: o/n at 37° C.
Procedure: (§3) FIG. 11. Specificity of IdeSork2.0. IdeSork2.0 was mixed with different antibodies and incubated o/n at 37° C. before analysis on SDS-PAGE.
as §2

sheep IgG = assay: Immunoglobulin specificity on SDS-PAGE: sheep IgG; type: biochemical; conditions: o/n at 37° C.
Procedure: as §3, §2

pig IgG = assay: Immunoglobulin specificity on SDS-PAGE: pig IgG; type: biochemical; conditions: o/n at 37° C.
Procedure: as §3, §2

dog IgG = assay: Immunoglobulin specificity on SDS-PAGE: dog IgG; type: biochemical; conditions: o/n at 37° C.
Procedure: as §3, §2

rat IgG = assay: Immunoglobulin specificity on SDS-PAGE: rat IgG; type: biochemical; conditions: o/n at 37° C.
Procedure: as §3, §2

Trastuzumab = assay: Mechanism of action: time course on Trastuzumab, non-reduced SDS-PAGE; type: biochemical, human; conditions: 1:20, 0-60 minutes
Procedure: FIG. 6. IdeSork2.0 is acting upon IgG in a two-step mechanism. To investigate if IdeSork2.0 is hydrolyzing both heavy chains of IgG simultaneously, or acting on them individually, we incubated Trastuzumab with IdeSork2.0 (1:20) and incubated for 0-60 minutes before analyzing on a non-reduced SDS-PAGE.
IdeS is known to first hydrolyze one chain of the antibody, and upon hydrolysis thereof, have lower affinity to the second chain. As such many antibodies may be only partly hydrolyzed at the start of the reaction. IdeSORK2.0 also generates fragments with single chain cleavage, however a large proportion of these are quickly processed to full cleavage (FIG. 6).

IgG [1] = assay: Optimal conditions, Box-Behnken design (pH, NaCl, temperature); type: biochemical
Procedure: FIG. 7. IdeSork2.0 optimal conditions. The optimal buffer composition for IdeSork2.0 was determined using a Box-Behnken experimental design, measuring the impact of pH, NaCl and temperature. Output was measures as percentage hydrolysis of IgG.
The optimal conditions for IdeSORK2.0 were assessed using a Box-Behnken experimental design to assess multiple factors and their inter-dependence. […] The enzymatic reaction is mainly driven by the substrate concentration (high concentration favours the reaction), while the enzyme concentration is secondary. This can also be seen as a low percentage IgG not being readily hydrolyzed even after a pro-longed incubation (FIG. 9).
To better understand the optimal conditions needed for the enzyme to exert its activity, a Box-Behnken design was employed for the experiment. Addition of NaCl (0-400 mM), pH (5.5-8.5), [enzyme], [substrate], time, and temperature were parameters investigated. Unless otherwise noted, all experiments were conducted in TBS at an enzyme: substrate ratio of 1:20, for 1 hour at 37° C.

IgG [2] = assay: Time-dose assays (enzyme:substrate ratio, time); type: biochemical
Procedure: FIG. 8. IdeSork2.0 enzyme: substrate ratio. The impact of enzyme and substrate concentration for the reaction speed was investigated using a Box-Behnken experimental setting, also analyzing the impact of time for the reaction speed. Output was measured as percentage hydrolysis of IgG (top left figure), as well as quantity hydrolyzed IgG per unit enzyme (all other figures).
FIG. 9. IdeSork2.0 enzyme: substrate activity over time. To verify the impact of modifying the enzyme: substrate ratio, an experiment with varying amounts of substrate (5-40 μg) to a set amount of enzyme (1 μg) was conducted over time (30, 60, and 120 min).
To investigate the impact of substrate and enzyme concentration, as well as time needed to complete (>95% hydrolysis) a reaction, a new Box-Behnken assay was designed (FIG. 8). The data was supported by traditional assays, with similar results (FIG. 9). IdeSORK2.0 quite rapidly hydrolyzes the vast majority of the material, but needs a longer time to finish hydrolysis of the last percentages of intact IgG, similar to other immunoglobulin proteases. A ratio of 1:40 hydrolyzes >95% of IgG in 30-60 minutes.
To better understand the optimal conditions needed for the enzyme to exert its activity, a Box-Behnken design was employed for the experiment. Addition of NaCl (0-400 mM), pH (5.5-8.5), [enzyme], [substrate], time, and temperature were parameters investigated. […]

IgG2 = assay: Comparison to other IgG proteases: IgG2; type: biochemical; conditions: SDS-PAGE
Procedure: FIG. 10. IdeSork2.0 is having a similar activity compared to IdeS and IdeZ. To investigate if IdeSork2.0 is hydrolyzing IgG in a similar way as IdeS and IdeZ they were all incubated against IgG1 and IgG2 and analyzed on SDS-PAGE. The cleavage patterns look identical, with both IdeSork2.0 and IdeS having less activity towards IgG2.
To further look into the activity of IdeSORK2.0, its activity was compared with IdeS and IdeZ against both IgG1 and IgG2.

B1: IdeSORK2.0: SEQ ID NO: 2 (N terminal 312 amino acids of IdeSORK) with added N terminal methionine and C-terminal His6; 319 amino acids (protein)
chain: MSKRKLLKKIEKKDTSSVLTQKKQTKTLWADGVQVDDKDFKPSTENFGTNYLAAEYGIGKGYYDINKKFDGTDDDLCSGVVAANQLHWWLDRNKDYIEKYRQQSKDNGVTIGNTDIFELNKLHDEDQSNFFDFIKKSFGNKFLQPERLLNMYINGYGYLTSQDKAKTSQPSPSKLNFFQKVFKNNLLTDKTPINDIDEFSSQTKNALQNHKVLAVSFASIKNRGLGHVVTVWGADFDENGKVVALYVTDSDDRSKNIGNAKLGMKKLRIEVSAQDSSTIKLTGFEDKNSGGSLRHLYSLSTGEQIWKKYFEETHHHHHH
modifications: (IdeSORK2.0) Protein of SEQ ID NO 2 engineered to include an additional N terminal methionine and a C-terminal protein purification tag - His6
B1 was tested, and the “General protease activity (signal)” value (casein) was “no signs of general protease activity”, the “General protease activity (signal)” value (casein; listed as IdeSork 2.0) was “did not give any measurable signal” and the “Hydrolysis of monoclonal IgG4” value (human IgG) was “can also hydrolyze”. For the same molecule, the “Hydrolysis of polyclonal IgG (e.g. IVIG)” value (human IgG) was “near complete hydrolysis”, the “Preference between human IgG subclasses” value (human IgG; IgG1 versus IgG2) was “slight preference for IgG1 over IgG2” and the “Effect of alterations of the hinge region (e.g. LALA-sequence) on activity” value (human IgG; human antibodies with altered hinge) was “did not affect the activity”. The “Hydrolysis of human IgG and IgG Fc fusion proteins” value (human IgG) was “hydrolyzing all tested human IgGs and IgG Fc fusion proteins”, the “Hydrolysis of human IgG and IgG Fc fusion proteins” value (human IgG; listed as IdeSork2.0) was “hydrolyzed” and the “Activity towards human IgA” value (human IgA) was “not active”. The “Activity towards human IgA” value (human IgA; listed as IdeSork2.0) was “not affected”, the “Activity towards mouse IgG1” value (mouse IgG1) was “not affected” and the “Activity on guinea pig IgG” value (guinea pig IgG) was “showed activity”. The “Activity on sheep IgG” value (sheep IgG) was “only showed activity against horse and guinea pig IgG; also recorded: no visible effect”, the “Activity on pig (porcine) IgG” value (pig IgG) was “only showed activity against horse and guinea pig IgG; also recorded: no visible effect” and the “Activity on dog IgG” value (dog IgG) was “only showed activity against horse and guinea pig IgG; also recorded: no visible effect”. For the same molecule, the “Activity on rat IgG” value (rat IgG) was “only showed activity against horse and guinea pig IgG; also recorded: no visible effect”, the “Mechanism of IgG heavy chain hydrolysis” value (Trastuzumab) was “activity is mediated one chain at a time” and the “Time course of IgG hydrolysis” value (Trastuzumab) was “Most IgG is hydrolyzed within the first few minutes”. For the same molecule, the “Mechanism of IgG heavy chain hydrolysis” value (Trastuzumab; listed as IdeSork2.0) was “two-step reaction”, the NaCl optimum (IgG [1]) was 0 mM and the “NaCl tolerated without a significant drop in activity” value (IgG [1]) was “up to 200 mM”. For the same molecule, the “Requirement for co-factors or reducing agents” value (IgG [1]) was “no requirement for co-factors or reducing agents”, the “pH in which highly active” value (IgG [1]) was 7.0-8.5 and the pH optimum (IgG [1]) was 7.5. For the same molecule, the “Effect of temperature on activity” value (IgG [1]; 37° C. versus room temperature) was “improved when incubated at 37 °C as compared to room temperature”, the NaCl range (IgG [1]; >90% activity) was 0 to 200 mM and the pH range (IgG [1]; >90% activity) was 6.5-8.5. The “Hydrolysis of IgG over time at varying substrate amounts” value (IgG [2]; 5-40 μg substrate to 1 μg enzyme, 30, 60 and 120 min) was “Almost all IgG is hydrolyzed within 30 minutes”, the “Hydrolysis of IgG” value (IgG [2]; ratio 1:40, 30-60 minutes) was greater than 95% and the “Hydrolysis of IgG2” value (IgG2) was “able to hydrolyze”. For the same molecule, the “Hydrolysis of IgG2” value (IgG2; listed as IdeSork2.0) was “less activity”.
